Measured values as given in paper PMC7226950.

Columns and labels:
[1] = target: NY-ESO peptide on HLA-A*02:01 (human); experiment: data from [41,42]; reprinted in Table 1
[2] = target: NY-ESO, mutated peptide ESO4D (4D, 9V) peptide on HLA-A*02:01 (human); experiment: data from [41,42]; reprinted in Table 1
[3] = target: NY-ESO peptide on HLA-A*02:01 (human); experiment: data from [41,42]; experimental binding affinity data reprinted in Table 1

koff [1]: 0.82 s⁻¹
kon [1]: 57000 M⁻¹ s⁻¹
t1/2 [1]: 0.84 s
Kd [2]: 252 µM
koff [2]: 2.59 s⁻¹
kon [2]: 10000 M⁻¹ s⁻¹
t1/2 [2]: 0.27 s
Kd [3]: 14 µM
Substance: 1G4
